The DeepSol protein solubility set

assay: soluble on expression in E. coli; label from the status in PepcDB or PDB records

| Sequence | soluble on expression in E. coli |
| --- | --- |
| GPMELAHREYQAGDFEAAERHCMQLWRQEPDNTGVLLLLSSIHFQCRRLDRSAHFSTLAIKQNPLLAEAYSNLGNVYKERGQLQEAIEHYRHALRLKPDFIDGYINLAAALVAAGDMEGAVQAYVSALQYNPDLYCVRSDLGNLLKALGRLEEAKACYLKAIETQPNFAVAWSNLGCVFNAQGEIWLAIHHFEKAVTLDPNFLDAYINLGNVLKEARIFDRAVAAYLRALSLSPNHAVVHGNLACVYYEQGLIDLAIDTYRRAIELQPHFPDAYCNLANALKEKGSVAEAEDCYNTALRLCPTHADSLNNLANIKREQGNIEEAVRLYRKALEVFPEFAAAHSNLASVLQQQGKLQEALMHYKEAIRISPTFADAYSNMGNTLKEMQD | soluble |
| GQDQRRRRIVSRRIYKRIMLKPHYLSIPEAQLEAMNNIQLNPIMKLINNNSDSPVMLSSPPDIFTAGKDMFDCFFRDIEAARHHVHIQFYVIEDDHLGSRLSDLLIRKVQEGVKVRVIFDHVGSWATGRGYWKRLRRAGVEAYPFMPVFFPILSSRVNYRNHRKVAVIDGKIGYLGGMNVADRYYSGNRLGLWRDTHFRMMGNVVAGLQSSFLLDWYVVSRRVINLSGYYPDLPIPVSDEGVKIQLVRSGPVGQWRTIEQATIYCIERACEHVYIETPYFLPTEGLN | not soluble |
| GSESGLRYAYTLVVDGTANTARCFGTGHVDGEAFVGYSNNKTHGIGRWVNASHVEEENKEFVRQCKELQAELDKMQNNSAVIGVKTVQLDVGCTSKIEKHYAYDGNETEDDTATSASERARDCQKKLTEYRKLVLASAVSPQLEVERRSSGREGGMRLRCFARDYYPADLEIRWWKDDGGGGALPQTSKQHHDPLPSGQGLYQKHIDVYVDGGLEHVYSCRVKGIATGLELQIVRWKG | soluble |
| GSHMAGLPRRIIKETQRLLAEPVPGIKAEPDESNARYFHVVIAGPQDSPFEGGTFKLELFLPEEYPMAAPKVRFMTKIYHPNVDKLGRICLDILKDKWSPALQIRTVLLSIQALLSAPNPDDPLANDVAEQWKTNEAQAIETARAWTRLYAMNNI | soluble |
| GSHMEAPILYEDPPEKLTSKDGRAANMKITSWNVDGLRAWVKKNGLDWVRKEDPDILCLQETKCAEKALPADITAMPEYPHKYWAGSEDKEGYSGVAMLCKTEPLNVTYGIGKEEHDKEGRVITAEFPDFFLVTAYVPNASRGLVRLDYRKTWDVDFRAYLCGLDARKPLVLCGDLNVAHQEIDLKNPKGNRKNAGFTPEEREGFTQLLEAGFTDSFRELYPDQAYAYTFWTYMMNARSKNVGWRLDYFVLSSALLPGLCDSKIRNTAMGSDHCPITLFLAV | soluble |
| GSHMNTLKKAFEILDFIVKNPGDVSVSEIAEKFNMSVSNAYKYMVVLEEKGFVLRKKDKRYVPGYKLIEYGSFVLRRFNIRDIAHDHLVDIMKRTGETVHLILKDGFEGVYIDKVEGEQSIPMVSRLGMKVDLYSTASGKSILAFVPEKELKEYLKIVELKPKTPNTITNPRVLKRELEKIRKRGYAVDNEENEIGIMCVGVPIFDHNGYPVAGVSISGVARKFTEEKIEEYSDVLKEKAEEISRKLGY | soluble |
| GSHMQTPKETLSERLSALQDKIIDHYENDSKDIDSQIQYWQLIRWENAIFFAAREHGIQTLNHQVVPAYNISKSKAHKAIELQMALQGLAQSAYKTEDWTLQDTCEELWNTEPTHCFKKGGQTVQVYFDGNKDNCMTYVAWDSVYYMTDAGTWDKTATCVSHRGLYYVKEGYNTFYIEFKSECEKYGNTGTWEVHFGNNVIDCNDSMCSTSDDTVSAT | soluble |
| GSHMSHDGKEEPGIAKKINSVDDIIIKCQCWVQKNDEERLAEILSINTRKAPPKFYVHYVNYNKRLDEWITTDRINLDKEVLYPKLKATDED | soluble |
| GSHMVTIVRIYLDGVYGIGKSTTGRVMASAASGGSPTLYFPEPMAYWRTLFETDVISGIYDTQNRKQQGNLAVDDAALITAHYQSRFTTPYLILHDHTCTLFGGNSLQRGTQPDLTLVFDRHPVASTVCFPAARYLLGDMSMCALMAMVATLPREPQGGNIVVTTLNVEEHIRRLRTRARIGEQIDITLIATLRNVYFMLVNTCHFLRSGRVWRDGWGELPTSCGAYKHRATQMDAFQERVSPELGDTLFALFKTQELLDDRGVILEVHAWALDALMLKLRNLNVFSADLSGTPRQCAAVVESLLPLMSSTLSDFDSASALERAARTFNAEMGV | soluble |
| GSMKPMGPNDYMVIGLARIDDRLIHGQVATRWTKETNVSRIIVVSDEVAADTVRKTLLTQVAPPGVTAHVVDVAKMIRVYNNPKYAGERVMLLFTNPTDVERLVEGGVKITSVNVGGMAFRQGKTQVNNAVSVDEKDIEAFKKLNARGIELEVRKVSTDPKLKMMDLISKIDK | soluble |
| GSMSLNDFLSSVLPVSEQFEYLSLQSIPLETHAVVTPNKDDKRVPKSTIKTQHFFSLFHQGKVFFSLEVYVYVTLWDEADAERLIFVSKADTNGYCNTRVSVRDITKIILEFILSIDPNYYLQKVKPAIRSTCPREILTKICLFTRPASQYLFPDSSKNSKKHILNGEELMKWWGFILDRLLIECFQNDTQAKLRIPGEDPARVRSYLRGMKYPLWQVGDIFTSKENSLAVYNIPLFPDDPKARFIHQLAEEDRLLKVSLSSFWIELQERQEFKLSVTSSVMGISGYSLATPSLFPSSADVIVPKSRKQFRAIKKYITGEEYDTEEGAIEAFTNIRDFLLLRMATNLQSLTGKREHRERNQPVPASNINTLAITMLKPRKKAKALPKT | soluble |
| GSPALDTGTTEEDRLKIDVIDWLVFDPAQRAEALKQGNAIMRKFLASKKHEAAKEVFVKIPQDSIAEIYNQCEEQGMESPLPAEDDNAIREHLCIRAYLEAHETFNEWFKHMNSVPQKPALIPQPTFTEKVAHEHKEKKYEMDFGIWKGHLDALTADVKEKMYNVLLFVDGGWMVDVREDAKEDHERTHQMVLLRKLCLPMLCFLLHTILHSTGQYQECLQLADMVSSERHKLYLVFSKEELRKLLQKLRESSLMLLDQGLDPLGYEIQLSGRIVTD | soluble |
| GSPEFKTIDASVSKKAADSTSQCGKATGSDSSGVIDLTMDDEESGASQD | soluble |
| GSPELGFSISGGVGGRGNPFRPDDDGIFVTRVQPEGPASKLLQPGDKIIQANGYSFINIEHGQAVSLLKTFQNTVELIIVREVGNGAKQEIRVRVEKDGGSGGVSSVPTNLEVVAATPTSLLISWDAYRELPVSYYRITYGETGGNSPVQEFTVPGSKSTATISGLKPGVDYTITVYAHYNYHYYSSPISINYRT | soluble |
| GSPGISGGGGGILMDVNVGLSRLQSQAGAPVGTKGSNTRLAAKQRETLQAYDYLCRVDEAKKWIEECLGTDLGPTSTFEQSLRNGVVLALLVQKFQPDKLIKIFYSNELQFRHSDNINKFLDFIHGIGLPEIFHFELTDIYEGKNLPKVIYCIHALSYFLSMQDLAPPLIKSDENLSFTDEDVSIIVRRLRQSNVILPNFKAL | soluble |
| GSPGLKGDKGIPGDKGAKGESGLPDVASLRQQVEALQGQVQHLQAAFSQYKKVELFPNGQSVGEKIFKTAGFVKPFTEAQLLCTQAGGQLASPRSAAENAALQQLVVAKNEAAFLSMTDSKTEGKFTYPTGESLVYSNWAPGEPNDDGGSEDCVEIFTNGKWNDRACGEKRLVVCEF | soluble |
| GSRPGPASQLPRFVRVNTLKTCSDDVVDYFKRQGFSYQGRASSLDDLRALKGKHFLLDPLMPELLVFPAQTDLHEHPLYRAGHLILQDRASCLPAMLLDPPPGSHVIDACAAPGNKTSHLAALLKNQGKIFAFDLDAKRLASMATLLARAGVSCCELAEEDFLAVSPSDPRYHEVHYILLDPSCSGSGMPSRQLEEPGAGTPSPVRLHALAGFQQRALCHALTFPSLQRLVYSTCSLCQEENEDVVRDALQQNPGAFRLAPALPAWPHRGLSTFPGAEHCLRASPETTLSSGFFVAVIERVEVPRRARG | soluble |
| GSSHHHHHHSSGLVPRGSHMRIVFDIGGSVLVPENPDIDFIKEIAYQLTKVSEDHEVAVVVGGGKLARKYIEVAEKFNSSETFKDFIGIQITRANAMLLIAALREKAYPVVVEDFWEAWKAVQLKKIPVMGGTHPGHTTDAVAALLAEFLKADLLVVITNVDGVYTADPKKDPTAKKIKKMKPEELLEIVGKGIEKAGSSSVIDPLAAKIIARSGIKTIVIGKEDAKDLFRVIKGDHNGTTIEP | soluble |
| GSTPITGPHIAYTEAVSDTQIMLKWTYIPSSNNNTPIQGFYIYYRPTDSDNDSDYKRDVVEGSKQWHMIGHLQPETSYDIKMQCFNEGGESEFSNVMICETK | soluble |
